Laboratory results published in US20250163449A1, “HERBICIDE-TOLERANT GENES AND METHOD FOR USING SAME” (QINGDAO KINGAGROOT CHEMICAL COMPOUND CO., LTD., priority 2022, published 2025).
Numbering of substitutions follows the chain as printed. Names and notes keep the numbering of the source.

B1: SEQ ID NO: 38: RdpA mutant L82H + V187L + F182W + R104G (protein)
chain: MHAALSPLSQRFERIAVQPLTGVLGAEITGVDLREPLDDSTWNEILDAFHTYQVIYFPGQAITNEQHIAFSRRFGPVDPVPHLKSIEGYPEVQMIRREANESGGVIGDDWHTDSTFLDAPPAAVVMRAIDVPEHGGDTGFLSMYTAWETLSPTMQATIEGLNVVHSATRVFGSLYQAQNRRWSNTSLKVMDVDAGDRETVHPLVVTHPGSGRKGLYVNQVYCQRIEGMTDAESKPLLQFLYEHATRFDFTCRVRWKKDQVLVWDNLCTMHRAVPDYAGKFRYLTRTTVGGVRPAR
B2: SEQ ID NO: 82: RdpA mutant L82H + V187L + F182W + G103L + R180E (protein)
chain: B1 chain with G103L, G104R, R180E
B3: SEQ ID NO: 126: RdpA mutant L82H + V187L + F182W + R104G + T112S + R180K (protein)
chain: B1 chain with T112S, R180K
B4: SEQ ID NO: 102: RdpA mutant L82H + V187L + F182W + G103L + T112A (protein)
chain: B1 chain with G103L, G104R, T112A
B5: SEQ ID NO: 106: RdpA mutant L82H + V187L + F182W + G103L + T112S (protein)
chain: B1 chain with G103L, G104R, T112S
B6: SEQ ID NO: 86: RdpA mutant L82H + V187L + F182W + G103L + R180S (protein)
chain: B1 chain with G103L, G104R, R180S
B7: SEQ ID NO: 138: RdpA mutant L82H + V187L + F182W + G103L + R180T (protein)
chain: B1 chain with G103L, G104R, R180T
B8: SEQ ID NO: 78: RdpA mutant L82H + V187L + F182W + G103L + R180D (protein)
chain: B1 chain with G103L, G104R, R180D
B9: SEQ ID NO: 98: RdpA mutant L82H + V187L + F182W + G103L + V80T (protein)
chain: B1 chain with V80T, G103L, G104R
B10: SEQ ID NO: 54: RdpA mutant L82H + V187L + F182W + R104G + R180W (protein)
chain: B1 chain with R180W
B11: SEQ ID NO: 58: RdpA mutant L82H + V187L + F182W + R104G + R180M (protein)
chain: B1 chain with R180M
B12: SEQ ID NO: 118: RdpA mutant L82H + V187L + F182W + R104G + V77I (protein)
chain: B1 chain with V77I
B13: SEQ ID NO: 122: RdpA mutant L82H + V187L + F182W + G103L + R104G + V105Y (protein)
chain: B1 chain with G103L, V105Y
B14: SEQ ID NO: 50: RdpA mutant L82H + V187L + F182W + R104G + V80T (protein)
chain: B1 chain with V80T
B15: SEQ ID NO: 2 (protein)
chain: B1 chain with G104R, W182F, L187V
B16: SEQ ID NO: 1: Amino acid sequence of RdpA (wild-type R-dichlorprop dioxygenase) (protein)
chain: B1 chain with H82L, G104R, W182F, L187V
modifications: Sphingobium herbicidovorans
B17: SEQ ID NO: 6 (protein)
chain: B1 chain with G104R, W182F
B18: SEQ ID NO: 134 (protein)
chain: B1 chain with T112S, R180W

System: rice (Jinjing 818)
Assay: Transgenic rice T0 plantlets in greenhouse sprayed with compound B
Format: in vivo
Conditions: medicated medium test and greenhouse spraying test for T0 generation, compound B
Procedure: Then, the obtained regenerated TO generation transgenic plantlets grew in the greenhouse, and were sprayed with compound B at the growth stage when approximately two leaves unfolded and the third one just appearing. Resistance levels of plants were recorded and evaluated after spraying treatment, wherein, the test results of control Jinjing 818 plants and transgenic Jinjing 818 plants comprising the protein-coding gene of SEQ ID NO: 42 after applying 20 g, 40 g, 60 g, 80 g, 100 g, 120 g/mu (1 mu=1/15 ha) compound B for corresponding days (DAT) are shown in FIG. 2.

Molecule | tolerance compared with the wild types (summary)
B1 | exhibited apparent tolerance
B2 | exhibited apparent tolerance
B3 | exhibited apparent tolerance
B4 | exhibited apparent tolerance
B5 | exhibited apparent tolerance
B6 | exhibited apparent tolerance
B7 | exhibited apparent tolerance

System: Arabidopsis thaliana
Assay: T2 transgenic Arabidopsis thaliana seeds screened on compound A medium
Format: in vivo
Conditions: 0.15 μM compound A in medium, 11-24 days
From the text: Engineered proteins were selected for Arabidopsis thaliana transformation and plant analysis. DNA constructs were transformed into Arabidopsis thaliana using Agrobacterium tumifaciens and standard methods known in the art.
The transformed TO transgenic plantlets grew in the greenhouse. T1 generation Arabidopsis thaliana plant seeds produced by transformation of all constructs were collected after approximately 60 days of growth. Transgenic T1 generation Arabidopsis thaliana plants were screened by adding HYG to medium for T1 generation. T1 plants were selfed to produce seeds of T2 generation Arabidopsis thaliana plants. Wherein, compound A was added to medium to screen and test T2 generation Arabidopsis thaliana plant seeds, that were produced by all constructs, comprising unique events screened by T1 generation.

Molecule | drug resistance compared with wild-type Arabidopsis thaliana (longer roots and larger leaves)
B2 | exhibited better drug resistance
B3 | exhibited better drug resistance
B4 | exhibited better drug resistance
B8 | exhibited better drug resistance
B6 | exhibited better drug resistance
B9 | exhibited better drug resistance
B7 | exhibited better drug resistance

System: not listed separately
Assay: Enzymatic kinetic measurements of purified proteins with compound A as substrate
Format: biochemical
Conditions: purified protein, compound A 0-1000 μM as substrate
Procedure: Based on the results of HPLC, representative engineered proteins were selected for protein purification. Further protein characterization, such as Km, Vmax and Kcat, was performed on the 8 engineered proteins from Table 2. Conventional Ni column affinity chromatography was used for protein purification and protein extract purity was assessed by SDS-PAGE analysis. After determining protein concentration by BCA method, enzyme activity was determined.

Molecule | Kcat | Km | Vmax
B1 | 0.43 S^−1 | 54.6 µM | 49.9
B10 | 0.35 S^−1 | 96.9 µM | 81
B11 | 0.05 S^−1 | 28.3 µM | 12.3
B12 | 0.43 S^−1 | 83.7 µM | 99.5
B13 | 1.1 S^−1 | 96.4 µM | 127.9
B14 | 0.07 S^−1 | 24.9 µM | 15.7

System: rice (Jinjing 818)
Assay: Transgenic rice seedlings, compound B added to medium at rooting phase
Format: in vivo
Conditions: at least 1 μM compound B in medium (0.5 and 1 μM for SEQ ID NO: 42), 17-26 days
Procedure: Plant transformation vectors were constructed, each comprising a recombinant DNA molecule encoding an engineered protein (SEQ ID NO: 42/38/82/86/102/106/126/138/142) with the protein-coding sequence optimized for monocot expression, and rice (Jinjing 818) calli were transformed with these vectors using Agrobacterium tumifaciens and standard methods known in the art. Different concentrations of hormone herbicide compound B were added at the rooting phase of the rice seedlings to test hormone resistance, wherein, the test results of control Jinjing 818 plants and transgenic Jinjing 818 plants comprising the protein-coding gene of SEQ ID NO: 42 after adding 0.5 μM and 1 μM compound B to medium for 19 days are shown in FIG. 1. The test results of control Jinjing 818 plants and transgenic Jinjing 818 plants comprising the protein-coding genes of SEQ ID NO: 38/82/86/102/106/126/138/142 after adding 1 μM compound B to medium are shown in FIG. 5-11.

Molecule | drug resistance (tolerance to compound B) compared with wild-type plants
B1 | exhibited better drug resistance
B2 | exhibited better drug resistance
B3 | exhibited better drug resistance
B4 | exhibited better drug resistance
B5 | exhibited better drug resistance
B6 | exhibited better drug resistance
B7 | exhibited better drug resistance

System: not listed separately
Assay: Conversion rate of substrate compound A by E. coli expressing each engineered protein (HPLC, oxygenase activity)
Format: biochemical
Conditions: Reaction condition 1: bacteria cultured overnight, substrate compound A and IPTG added to react overnight
From the text: The high-throughput bacterial protein expression was achieved by cloning the synthesized gene that encodes each engineered protein into a bacterial expression vector with a C-terminal histidine tag (His-tag). The vectors were transformed into Escherichia coli (E. coli), and expression of the engineered proteins was induced. E. coli cultures were selected and cultured in centrifuge tubes overnight, meanwhile, added with substrates and IPTG, and the cultures were centrifuged to pellet the bacteria the next day. Alternatively, E. coli cultures were selected and cultured in centrifuge tubes overnight, and centrifuged to pellet the bacteria after adding substrates for reaction the next day. The supernatant of reaction solution was pipetted into a 96-well plate and the absorbance at 510 nm from 4-aminoantipyrine and potassium ferricyanide was measured by an endpoint colorimetric method to detect phenol products. Substrate reduction and product yield were measured by high performance liquid chromatography (HPLC) to detect the oxygenase activity (i.e., enzymatic activity) of the engineered proteins, and the activities of the proteins were compared by calculating conversion rates.
Conversion rate=(Peak area of initial substrate−Peak area of substrate after reaction)/Peak area of initial substrate*100%

Molecule | Conversion rate
B1 | 96.9%
B15 | 67.5%
B16 | 0.06%
B10 | 92.5%
B11 | 90%
B12 | 95.8%
B13 | 94.3%
B14 | 97.2%
B17 | 95.2%

Same assay, conditions: Reaction condition 2: bacteria cultured overnight, 8 times dose of substrate compound A of condition 1 added, react 3 hours the next day

Molecule | Conversion rate
B2 | 71.6%
B16 | 0.06%
B3 | 92.6%
B4 | 93.2%
B8 | 79%
B5 | 86.3%
B6 | 76.8%
B9 | 81%
B18 | 77.6%
B7 | 54.6%
